Source: patent US20240400638A1, “COMBINATION OF RELAXIN AND VASOPRESSIN ANALOGUES FOR TREATMENT OF RENAL DISORDERS OR CONDITIONS” (River 2 Renal Corp., priority 2021, published 2024)
Numbered stars: 1 amine (or outer) side, 2 acyl side, 3 side chain; on linkers, the order of the positions; unused ones are H or OH. Square brackets hold non-standard residues; d marks the D form. Side chains are listed from the residue outwards. * marks the point of attachment. TTDS = 4-[3-[2-[2-(3-aminopropoxy)ethoxy]ethoxy]propylamino]-4-oxo-butanoyl; γGlu = O=C(O)[C@H](CCC(=O)[*:2])N[*:1]; Stearoyl = CCCCCCCCCCCCCCCCCC(=O)*; Palmitoyl = CCCCCCCCCCCCCCCC(=O)*; Cit = NC(=O)NCCC[C@H](N)C(=O)O; αMeK = C[C@](N)(CCCCN)C(=O)O; hLys = NCCCCC[C@H](N)C(=O)O; AEEA = NCCOCCOCC(=O)O; Aib = CC(C)(N)C(=O)O

T1: human RXFP1 (human, UniProt Q9HBX9 1-757)
T1 sequence (looked up): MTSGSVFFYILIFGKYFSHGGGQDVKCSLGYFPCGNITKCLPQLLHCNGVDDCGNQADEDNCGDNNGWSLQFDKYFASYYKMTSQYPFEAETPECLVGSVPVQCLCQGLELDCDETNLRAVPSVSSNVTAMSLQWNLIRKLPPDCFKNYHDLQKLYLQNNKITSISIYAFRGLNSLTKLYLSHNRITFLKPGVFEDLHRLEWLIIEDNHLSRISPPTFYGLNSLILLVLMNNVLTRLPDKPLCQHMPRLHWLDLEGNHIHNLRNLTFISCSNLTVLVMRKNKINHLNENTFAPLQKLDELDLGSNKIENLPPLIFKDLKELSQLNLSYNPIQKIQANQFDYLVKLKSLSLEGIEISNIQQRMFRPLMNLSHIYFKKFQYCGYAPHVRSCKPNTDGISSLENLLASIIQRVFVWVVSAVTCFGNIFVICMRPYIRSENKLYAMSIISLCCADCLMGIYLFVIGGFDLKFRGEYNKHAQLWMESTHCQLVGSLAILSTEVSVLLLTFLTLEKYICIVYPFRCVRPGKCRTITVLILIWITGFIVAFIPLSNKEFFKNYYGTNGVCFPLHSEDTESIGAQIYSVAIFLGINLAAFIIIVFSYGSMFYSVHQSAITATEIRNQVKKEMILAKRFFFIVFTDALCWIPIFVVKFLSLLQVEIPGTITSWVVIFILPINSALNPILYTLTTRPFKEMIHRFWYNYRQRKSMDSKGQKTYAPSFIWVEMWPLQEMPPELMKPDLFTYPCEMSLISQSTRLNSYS


Legend:
human RXFP1 [1] = target: T1, human RXFP1; assay: cell-based or functional assay
human RXFP1 [2] = target: T1, human RXFP1; assay: cell-based or functional assay; remark: listed apart in the source

Row | Binder | EC50 (nM), OVCAR 5 cells (cAMP) (human RXFP1 [1]) [nM] | EMax, OVCAR 5 cells (cAMP) (human RXFP1 [1]) [%] | EC50 (nM), cAMP assay in OVCAR 5 cells (human RXFP1 [2]) [nM] | Emax, cAMP assay in OVCAR 5 cells (human RXFP1 [2]) [%]
1 | Ac-LEGREFVRAK(Ac)I[Aib][Aib]EGK([TTDS-TTDS-TTDS-γGlu-γGlu-γGlu-Palmitoyl])STWS[Aib]RRK(Ac)-NH2 [Relaxin peptide analogue of SEQ ID NO: 39] | 8.7 | 93 |  | 
2 | Ac-LEGREKVRAK(Ac)I[Aib][Aib]EGK([TTDS-TTDS-TTDS-γGlu-γGlu-γGlu-Palmitoyl])STFS[dK]RAK(Ac)-NH2 [Relaxin peptide analogue of SEQ ID NO: 36] | 3.6 | 93 |  | 
3 | Ac-LEGREKVRAQI[Aib][Aib]EGK([TTDS-TTDS-TTDS-γGlu-γGlu-γGlu-Palmitoyl])STFS[αMeK]RAK(Ac)-NH2 [Relaxin peptide analogue of SEQ ID NO: 48] | 0.45 | 96 |  | 
4 | Ac-LEGREKVRAK(Ac)I[Aib][Aib]EGK([TTDS-TTDS-TTDS-γGlu-γGlu-γGlu-Palmitoyl])STW[dS]KRAK(Ac)-NH2 [Relaxin peptide analogue of SEQ ID NO: 44] | 2.2 | 97 |  | 
5 | Ac-LEGRELVRAK(Ac)I[Aib][Aib]EGK([TTDS-TTDS-TTDS-γGlu-γGlu-γGlu-Palmitoyl])STWS[Aib]RRK(Ac)-NH2 [Relaxin peptide analogue of SEQ ID NO: 37] | 5.6 | 98 |  | 
6 | Ac-LEGREKVRAK(Ac)I[Aib][Aib]EGK([TTDS-TTDS-γGlu-γGlu-γGlu-Stearoyl])STFS[αMeK]RAK(Ac)-NH2 [Relaxin peptide analogue of SEQ ID NO: 34] | 0.14 | 90 |  | 
7 | Ac-LEGREKVRAKI[Aib][Aib]EGK([TTDS-TTDS-TTDS-γGlu-γGlu-γGlu-Palmitoyl])STFS[αMeK]RAK(Ac)-NH2 [Relaxin peptide analogue of SEQ ID NO: 47] | 0.64 | 95 |  | 
8 | Ac-LEGREKVRAK(Ac)I[Aib][Aib]EGK([AEEA-AEEA-AEEA-AEEA-γGlu-γGlu-γGlu-Palmitoyl])STWS[αMeK]RAK(Ac)-NH2 (SMILES CCCCCCCCCCCCCCCC(=O)N[C@@H](CCC(=O)N[C@@H](CCC(=O)N[C@@H](CCC(=O)NCCOCCOCC(=O)NCCOCCOCC(=O)NCCOCCOCC(=O)NCCOCCOCC(=O)NCCCC[C@H](NC(=O)CNC(=O)[C@H](CCC(=O)O)NC(=O)C(C)(C)NC(=O)C(C)(C)NC(=O)[C@@H](NC(=O)[C@H](CCCCNC(C)=O)NC(=O)[C@H](C)NC(=O)[C@H](CCCNC(=N)N)NC(=O)[C@@H](NC(=O)[C@H](CCCCN)NC(=O)[C@H](CCC(=O)O)NC(=O)[C@H](CCCNC(=N)N)NC(=O)CNC(=O)[C@H](CCC(=O)O)NC(=O)[C@H](CC(C)C)NC(C)=O)C(C)C)[C@@H](C)CC)C(=O)N[C@@H](CO)C(=O)N[C@H](C(=O)N[C@@H](Cc1c[nH]c2ccccc12)C(=O)N[C@@H](CO)C(=O)N[C@@](C)(CCCCN)C(=O)N[C@@H](CCCNC(=N)N)C(=O)N[C@@H](C)C(=O)N[C@@H](CCCCNC(C)=O)C(N)=O)[C@@H](C)O)C(=O)O)C(=O)O)C(=O)O) [Relaxin peptide analogue of SEQ ID NO: 42] | 1.5 | 84 |  | 
9 | H-VIKLSGRELVRAQIAISGMSTWSKRSL-NH2 [B7-33 C11.23S] |  |  | 1640 | 90
10 | Ac-VIKLSGRELVRAQIAISGMSTWSKRSL-NH2 [AcB7-33 C11.23S] |  |  | 929 | 70
11 | Ac-LEGREKVRAK(Ac)I[Aib][Aib]EGK([TTDS-TTDS-γGlu-γGlu-γGlu-Palmitoyl])STWS[Aib]RKK(Ac)-NH2 [Relaxin peptide analogue of SEQ ID NO: 4] | 1.5 | 89 |  | 
12 | Ac-LEGREKVRAK(Ac)I[Aib][Aib]EGK([TTDS-TTDS-TTDS-γGlu-γGlu-γGlu-Palmitoyl])STW[Aib]KRAK(Ac)-NH2 [Relaxin peptide analogue of SEQ ID NO: 35] | 2.33 | 91 |  | 
13 | Ac-LEGREKVRAK(Ac)I[Aib][Aib]EGK([AEEA-AEEA-AEEA-AEEA-AEEA-γGlu-γGlu-γGlu-Palmitoyl])STFS[αMeK]RAK(Ac)-NH2 (SMILES CCCCCCCCCCCCCCCC(=O)N[C@@H](CCC(=O)N[C@@H](CCC(=O)N[C@@H](CCC(=O)NCCOCCOCC(=O)NCCOCCOCC(=O)NCCOCCOCC(=O)NCCOCCOCC(=O)NCCOCCOCC(=O)NCCCC[C@H](NC(=O)CNC(=O)[C@H](CCC(=O)O)NC(=O)C(C)(C)NC(=O)C(C)(C)NC(=O)[C@@H](NC(=O)[C@H](CCCCNC(C)=O)NC(=O)[C@H](C)NC(=O)[C@H](CCCNC(=N)N)NC(=O)[C@@H](NC(=O)[C@H](CCCCN)NC(=O)[C@H](CCC(=O)O)NC(=O)[C@H](CCCNC(=N)N)NC(=O)CNC(=O)[C@H](CCC(=O)O)NC(=O)[C@H](CC(C)C)NC(C)=O)C(C)C)[C@@H](C)CC)C(=O)N[C@@H](CO)C(=O)N[C@H](C(=O)N[C@@H](Cc1ccccc1)C(=O)N[C@@H](CO)C(=O)N[C@@](C)(CCCCN)C(=O)N[C@@H](CCCNC(=N)N)C(=O)N[C@@H](C)C(=O)N[C@@H](CCCCNC(C)=O)C(N)=O)[C@@H](C)O)C(=O)O)C(=O)O)C(=O)O) [Relaxin peptide analogue of SEQ ID NO: 45] | 0.45 | 96 |  | 

Results, then the binder that gave them:

Row | EC50 (nM), OVCAR 5 cells (cAMP) (human RXFP1 [1]) [nM] | EMax, OVCAR 5 cells (cAMP) (human RXFP1 [1]) [%] | EC50 (nM), cAMP assay in OVCAR 5 cells (human RXFP1 [2]) [nM] | Emax, cAMP assay in OVCAR 5 cells (human RXFP1 [2]) [%] | Binder
14 | 0.08 | 98 |  |  | Ac-LEGREKVRAK(Ac)I[Aib][Aib]EGK([TTDS-TTDS-TTDS-TTDS-γGlu-γGlu-γGlu-Stearoyl])STWS[Aib]RKK(Ac)-NH2 [Relaxin peptide analogue of SEQ ID NO: 58]
15 | 0.19 | 97 |  |  | Ac-LEGREKVRAK(Ac)I[Aib][Aib]EGK([TTDS-TTDS-TTDS-γGlu-γGlu-γGlu-Palmitoyl])STFS[αMeK]RAK-NH2 [Relaxin peptide analogue of SEQ ID NO: 49]
16 | 0.44 | 98 |  |  | Ac-LEGREKVRAK(Ac)I[Aib][Aib]EGK([TTDS-TTDS-TTDS-γGlu-γGlu-γGlu-Palmitoyl])STWS[hLys]RAK(Ac)-NH2 [Relaxin peptide analogue of SEQ ID NO: 57]
17 | 0.1 | 98 |  |  | Ac-LEGREKVRAK(Ac)I[Aib][Aib]EGK([TTDS-TTDS-TTDS-γGlu-γGlu-γGlu-γGlu-Stearoyl])STWS[Aib]RKK(Ac)-NH2 [Relaxin peptide analogue of SEQ ID NO: 51]
18 | 0.16 | 96 |  |  | Ac-LEGREKVRAK(Ac)I[Aib][Aib]EGK([TTDS-TTDS-γGlu-γGlu-γGlu-γGlu-Stearoyl])STWS[Aib]RKK(Ac)-NH2 [Relaxin peptide analogue of SEQ ID NO: 54]
19 | 0.15 | 91 |  |  | Ac-LEGREKVRA[Cit]I[Aib][Aib]EGK([TTDS-TTDS-TTDS-γGlu-γGlu-γGlu-Stearoyl])STFS[αMeK]RAK(Ac)-NH2 [Relaxin peptide analogue of SEQ ID NO: 56]
